Measurements as given in US20220273830A1, “COMPOUNDS AND METHODS OF USE” (EDINBURGH MOLECULAR IMAGING LIMITED, priority 2019, published 2022).
Several values for one entry are separate records, joined by “and”; a condition that tells them apart may be missing. Equal entries are not always repeated. Positions of bridges follow the written chain, without caps; N, C: chain ends. Residues, ends and D or L forms follow the SMILES beside them. *: point of attachment. DOTA = O=C(O)CN1CCN(CC(=O)O)CCN(CC(=O)*)CCN(CC(=O)O)CC1

Assays:
cMet receptor = cMet receptor (Homo sapiens, UniProt P08581); assay: Competition binding assay by fluorescence polarisation (FP); conditions: mean; competition FP vs Cy5-labelled probe 20 nM, cMet receptor 50 nM, PBS pH 7.4 with 0.01% Tween 20
Procedure: The half maximal inhibitory concentration (IC50) and dissociation constant (Kd) values were determined by competition fluorescence polarisation (FP) assay for the binding of cMet binding cyclic peptide (unlabelled), cMet-DOTA (Compound 3) and cMet-DOTAGA (Compound 4) to cMet receptor.
The principle of the fluorescence polarisation method can briefly be described as follows:
Monochromatic light passes through a […] polarizing filter and excites fluorescent molecules in the sample. Only those molecules that are oriented properly in the vertically polarized plane adsorb light, become excited, and subsequently emit light. The emitted light is measured in both horizontal and vertical planes. The anisotropy value (A), is the ratio between the light intensities following the equation:
A=(Intensity with horizontal polarizer—Intensity with vertical polarizer)/(Intensity with horizontal polarizer+2* Intensity with vertical polarizer).
The fluorescence anisotropy measurements were performed in a 96-well flat bottom plate using a Molecular Devices M5 multi-mode plate reader.
The assay buffer used was phosphate-buffered saline (PBS), pH 7.4 with 0.01% Tween 20. […]
IC50 values were determined by data fitting with the following equation using KaleidaGraph v4.03: […]
Kd values were determined by data fitting with the following equation using KaleidaGraph v4.03: […]

tumours = conditions: human, in vivo
Procedure: The radiolabelling procedure used was as follows.
(§1) Pre-therapeutic positron emission tomography/computed tomography (PET/CT) imaging was carried out 1 hour and 3 hours post injection with the imaging agent. […] Patient 1 was then administered with the therapeutic agent. […] single-photon emission computed tomography (SPECT) imaging was then carried out 1.5 hours, 17 hours, 41 hours, 65 hours and 141 hours post injection with the therapeutic agent.
(§2) Patient 2 was then administered with the therapeutic agent. […] SPECT imaging was then carried out 4.5 hours, 20 hours, 45 hours, 67 hours and 141 hours post injection with the therapeutic agent.
(§3) PET/CT imaging was performed using a Siemens Biograph mCT Flow PET/CT. SPECT imaging was performed using a Siemens Intevo SPECT/CT.

clinical = conditions: for accumulation and retention in tumours (SPECT): up to 141 hours post injection
Procedure: A dosimetry study was carried out using Compound 3 to investigate the suitability of the compounds described herein for use in imaging and radiotherapy.
The radiolabelling procedure used was as follows. Compound 3 was dissolved in ultrapure water (2 μg/μl) and 1.5 mL of 0.4 M sodium acetate buffer at pH 4.8 (8 mg/mL). Gentisic acid was added and the mixture was transferred to a ^177Lu V-vial. The vial was heated for 25 minutes at 95° C.
as §1, §2, §3

[1] = patient 1, 835 MBq, tumours (individual clusters)
[2] = patient 2, 959 MBq, tumours (individual VOIs)

Chain of cMet receptor (P08581 25-932 limits assumed): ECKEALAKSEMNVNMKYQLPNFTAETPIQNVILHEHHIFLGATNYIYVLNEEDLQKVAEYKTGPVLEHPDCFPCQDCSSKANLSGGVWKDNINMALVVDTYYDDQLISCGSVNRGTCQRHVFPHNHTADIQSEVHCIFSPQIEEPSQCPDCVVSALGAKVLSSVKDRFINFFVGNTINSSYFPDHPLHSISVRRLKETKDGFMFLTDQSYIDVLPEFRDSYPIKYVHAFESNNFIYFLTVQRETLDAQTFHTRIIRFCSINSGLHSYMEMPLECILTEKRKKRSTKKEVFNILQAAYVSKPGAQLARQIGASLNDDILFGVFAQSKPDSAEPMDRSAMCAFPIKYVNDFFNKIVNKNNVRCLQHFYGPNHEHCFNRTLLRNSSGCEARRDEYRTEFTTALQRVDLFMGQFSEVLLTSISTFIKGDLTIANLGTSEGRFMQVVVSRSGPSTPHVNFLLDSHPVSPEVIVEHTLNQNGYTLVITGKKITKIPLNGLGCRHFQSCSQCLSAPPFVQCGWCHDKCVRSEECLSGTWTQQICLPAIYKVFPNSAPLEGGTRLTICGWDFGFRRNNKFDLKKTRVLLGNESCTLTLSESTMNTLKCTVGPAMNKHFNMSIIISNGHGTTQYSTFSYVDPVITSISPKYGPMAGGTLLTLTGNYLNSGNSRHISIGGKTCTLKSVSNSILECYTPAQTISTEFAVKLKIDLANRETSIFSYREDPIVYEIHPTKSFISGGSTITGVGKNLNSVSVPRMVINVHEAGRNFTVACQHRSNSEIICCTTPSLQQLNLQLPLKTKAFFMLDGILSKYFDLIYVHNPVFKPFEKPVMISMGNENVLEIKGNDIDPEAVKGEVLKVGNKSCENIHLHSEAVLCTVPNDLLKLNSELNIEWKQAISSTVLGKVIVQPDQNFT

For `CC(=O)N[C@@H](C)C(=O)NCC(=O)N[C@@H](CO)C(=O)N[C@H]1CSSC[C@@H](C(=O)N[C@@H](Cc2ccc(O)cc2)C(=O)N[C@@H](CCC(=O)O)C(=O)N[C@H](C(=O)N[C@@H](CCC(=O)O)C(=O)NCC(=O)N[C@H](C(=O)NCC(=O)NCC(=O)NCC(=O)N[C@@H](CCCCN)C(N)=O)[C@@H](C)O)[C@@H](C)O)NC(=O)[C@H](Cc2c[nH]c3ccccc23)NC(=O)[C@@H]2CSSC[C@H](NC(=O)[C@H](Cc3ccc(O)cc3)NC1=O)C(=O)N[C@@H](CO)C(=O)NCC(=O)N1CCC[C@H]1C(=O)N1CCC[C@H]1C(=O)N[C@@H](CCCNC(=N)N)C(=O)N[C@@H](Cc1ccccc1)C(=O)N[C@@H](CCC(=O)O)C(=O)N2` [cMet peptide (unlabelled)] (HELM PEPTIDE1{[ac].A.G.S.C.Y.C.S.G.P.P.R.F.E.C.W.C.Y.E.T.E.G.T.G.G.G.K.[am]}$PEPTIDE1,PEPTIDE1,5:R3-17:R3|PEPTIDE1,PEPTIDE1,7:R3-15:R3$$$V2.0), the IC50 (cMet receptor) was 320 ± 37 nM and the Kd (cMet receptor) was 6.9 ± 0.8 nM.
With `CC(=O)N[C@@H](C)C(=O)NCC(=O)N[C@@H](CO)C(=O)N[C@H]1CSSC[C@@H](C(=O)N[C@@H](Cc2ccc(O)cc2)C(=O)N[C@@H](CCC(=O)O)C(=O)N[C@H](C(=O)N[C@@H](CCC(=O)O)C(=O)NCC(=O)N[C@H](C(=O)NCC(=O)NCC(=O)NCC(=O)N[C@@H](CCCCNC(=O)CN2CCN(CC(=O)O)CCN(CC(=O)O)CCN(CC(=O)O)CC2)C(N)=O)[C@@H](C)O)[C@@H](C)O)NC(=O)[C@H](Cc2c[nH]c3ccccc23)NC(=O)[C@@H]2CSSC[C@H](NC(=O)[C@H](Cc3ccc(O)cc3)NC1=O)C(=O)N[C@@H](CO)C(=O)NCC(=O)N1CCC[C@H]1C(=O)N1CCC[C@H]1C(=O)N[C@@H](CCCNC(=N)N)C(=O)N[C@@H](Cc1ccccc1)C(=O)N[C@@H](CCC(=O)O)C(=O)N2` [^68Ga-Compound 3, metal not drawn] (Ac-AGSCYCSGPPRFECWCYETEGTGGGK(DOTA)-NH2; disulfide 4-16, 6-14) the “accumulation in tumours (PET/CT)” value (tumours) was “accumulation”.
With `CC(=O)N[C@@H](C)C(=O)NCC(=O)N[C@@H](CO)C(=O)N[C@H]1CSSC[C@@H](C(=O)N[C@@H](Cc2ccc(O)cc2)C(=O)N[C@@H](CCC(=O)O)C(=O)N[C@H](C(=O)N[C@@H](CCC(=O)O)C(=O)NCC(=O)N[C@H](C(=O)NCC(=O)NCC(=O)NCC(=O)N[C@@H](CCCCNC(=O)CN2CCN(CC(=O)O)CCN(CC(=O)O)CCN(CC(=O)O)CC2)C(N)=O)[C@@H](C)O)[C@@H](C)O)NC(=O)[C@H](Cc2c[nH]c3ccccc23)NC(=O)[C@@H]2CSSC[C@H](NC(=O)[C@H](Cc3ccc(O)cc3)NC1=O)C(=O)N[C@@H](CO)C(=O)NCC(=O)N1CCC[C@H]1C(=O)N1CCC[C@H]1C(=O)N[C@@H](CCCNC(=N)N)C(=O)N[C@@H](Cc1ccccc1)C(=O)N[C@@H](CCC(=O)O)C(=O)N2` [^177Lu-Compound 3, metal not drawn] (Ac-AGSCYCSGPPRFECWCYETEGTGGGK(DOTA)-NH2; disulfide 4-16, 6-14) the half-life (clinical; human, kidney (left), Half-life, patient 2, 959 MBq) was 37 h, the half-life (clinical; human, kidney (left), Halflife, patient 1, 835 MBq) was 21 h and the half-life (clinical; human, kidney (right), Half-life, patient 2, 959 MBq) was 40 h. It also gave a half-life (clinical; human, kidney (right), Halflife, patient 1, 835 MBq) of 21 h, a half-life (clinical; human, liver, Half-life, patient 2, 959 MBq) of 77 h and a half-life (clinical; human, liver, Halflife, patient 1, 835 MBq) of 73 h. It also gave a half-life (clinical; human, spleen, Half-life, patient 2, 959 MBq) of 58 h, a half-life (clinical; human, spleen, Halflife, patient 1, 835 MBq) of 39 h and a half-life (clinical; human, tumours (individual VOIs), Half-life, patient 2, 959 MBq) of 28 h. For the same molecule, the half-life (clinical; human, tumours (individual clusters), Halflife, patient 1, 835 MBq) was 42 h, the Dose (clinical; patient 1, 835 MBq, kidney (left)) was 1.04 Gy and the Dose (clinical; patient 1, 835 MBq, kidney (right)) was 1.02 Gy. For the same molecule, the Dose (clinical; [1]) was 0.4 Gy and 0.43 Gy and 0.36 Gy, the Halflife (clinical; [1]) was 48 h and 32 h and 59 h and the “accumulation and retention in tumours (SPECT)” value (clinical; patient 1, 835 MBq) was “accumulation and retention”. For the same molecule, the Dose (clinical; patient 2, 959 MBq, kidney (left), VOI 2466) was 1.87 Gy, the Dose (clinical; patient 2, 959 MBq, kidney (left), VOI K-l-iso (Isocont.)) was 1.73 Gy and the Dose (clinical; patient 2, 959 MBq, kidney (right), VOI 2548) was 1.06 Gy. For the same molecule, the Dose (clinical; [2]) was 0.08 Gy and 0.05 Gy and 0.04 Gy, the half-life (clinical; [2]) was 27 h and the “accumulation and retention in tumours (SPECT)” value (clinical; patient 2, 959 MBq) was “accumulation and retention”.
